Experimental data from the supplement of paper PMC10126150.
± gives the standard deviation of the averaged measurements.

System: ATP
Experiment: switch fluorescence ratio, 500 uM ATP over buffer (Cy3 cluster intensity, sum of 5 cycles each) (fold (ratio)); higher = stronger signal-on switching upon ATP binding; sequences stand for … in TCGTCGGCAGCGTCAGATGTGTATAAGAGACAGTTTTTTTTTTTTTTTTTTTTTTTTT…TC
Conditions: aptamer strand: ATP DNA aptamer (quencher-CACCTGGGGGAGTATTGCGGAGGAAGG + anchor), 100 nM annealed; ATP concentration: 500 uM
Procedure, shortened: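 Clusters with intensities outside 100-1000 RFU were excluded. The remaining Cy3-labelled switching-strand clusters on a modified Illumina MiSeq flow-cell had been annealed to 100 nM quencher-labelled ATP aptamer and imaged in selection buffer, then after 15 min with 500 uM ATP at 22 °C, for five cycles separated by NaOH stripping and re-annealing. The fluorescence ratio, averaged per switch-domain sequence, is each cluster's summed target-cycle Cy3 intensity over its summed buffer-cycle Cy3 intensity.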
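Further: ATP exposure 15 min at 22 °C before imaging.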

Row | Sequence | switch fluorescence ratio
1 | GGCGGTATGT | 0.975 ± 0.028
2 | TTCGATGCAT | 1.58 ± 0.43
3 | AGGGTCAATG | 0.983 ± 0.013
4 | CGGGCCACGA | 1.04 ± 0.026
5 | TACACATTTT | 1.07 ± 0.026
6 | TTTTGTGAGG | 1.04 ± 0.044
7 | TTTTACCAG | 1.02 ± 0.051
8 | TAGGGATGTA | 1.01 ± 0.016
9 | AAGTTATGTA | 1.01 ± 0.031
10 | TGCCTAAAGT | 0.976 ± 0.016
11 | CGGAGGAAGG | 1.044 ± 0.0072
12 | AGAAAAGGTG | 1.19 ± 0.13
13 | GGGAAGGCGG | 1.02 ± 0.027
14 | GGACATTTAG | 1.03 ± 0.017
15 | TTGGGGTTAC | 1.11 ± 0.16
16 | CCCGTGGAAA | 1.09 ± 0.1
17 | TATATACTGT | 1.02 ± 0.03
18 | GTTGGGGCGG | 1.01 ± 0.057
19 | CCAGACCAGT | 1.011 ± 0.0024
20 | ATTAAAAGTT | 0.984 ± 0.038
21 | TGATGTGATG | 0.995 ± 0.012
22 | TTATGCAAAA | 1.14 ± 0.21
23 | CGTGCGAAGG | 1.03 ± 0.049
24 | GGCTTGAACA | 1.01 ± 0.034
25 | CCTCTTTTTG | 1.02 ± 0.011

Row | Sequence | switch fluorescence ratio
26 | TGGGTCCGTT | 1.01 ± 0.036
27 | TCAAACATTT | 1.016 ± 0.0076
28 | TGGGGGGCCG | 1.06 ± 0.19
29 | GCGAGATCCG | 1.01 ± 0.011
30 | ACATCGTTCT | 0.977 ± 0.018
31 | TCGAAGTGTT | 0.989 ± 0.027
32 | CTGTATTTGG | 1 ± 0.012
33 | TTGTTGAAGT | 0.9966 ± 0.0072
34 | TTTTTTTCTT | 0.994 ± 0.024
35 | GGGACACGGC | 0.996 ± 0.059
36 | CTCGACATTT | 1.02 ± 0.027
37 | AAAAGGGCAT | 1.01 ± 0.015
38 | GGGTTTTGG | 0.998 ± 0.017
39 | GATCTGGGTT | 0.994 ± 0.031
40 | CGGGAATTTC | 1.04 ± 0.027
41 | CGCTTATACG | 1.78 ± 0.58
42 | TTCTAGTCTA | 0.987 ± 0.01
43 | CGGCGGGCGA | 1.03 ± 0.02
44 | TTTTAATTAT | 1.05 ± 0.026
45 | CTTGATTAGG | 0.9981 ± 0.0037
46 | TCGCGGGGTG | 1.02 ± 0.056
47 | TGTGTAGGGG | 1.04 ± 0.079
48 | CCAGGGGCGT | 1.393 ± 0.012
49 | TTCATTCGCT | 1.52 ± 0.056
50 | GAACGGGTAC | 1.42 ± 0.17

Row | Sequence | switch fluorescence ratio
51 | GCGGTATGCT | 0.9517 ± 0.0058
52 | TATTGAGTTA | 1.01 ± 0.033
53 | AGGGTAGTGC | 0.9869 ± 0.0091
54 | GATTGAGCTG | 1.02 ± 0.043
55 | GTGGTTTTTG | 0.968 ± 0.025
56 | TAAATAGGGA | 1.01 ± 0.03
57 | GCTGCGGGGT | 0.993 ± 0.045
58 | CGTTTTTTTG | 1.014 ± 0.0018
59 | TGGTTGAATT | 0.992 ± 0.05
60 | TCTTTGTTGT | 1.01 ± 0.019
61 | ATCATGGCGG | 0.99 ± 0.017
62 | TTTTTAAGCG | 1 ± 0.023
63 | GGGTTGATTA | 0.9898 ± 0.0084
64 | TAAGGTTTGT | 0.988 ± 0.021
65 | AATTTGAGCC | 0.965 ± 0.039
66 | TTAGTTATAG | 1 ± 0.025
67 | GCTTTGGCTT | 1 ± 0.03
68 | TGGATTTGGA | 0.999 ± 0.02
69 | TATGTACTAA | 1.08 ± 0.023
70 | TAAAAGGTTG | 0.989 ± 0.033
71 | AAAGACAAAT | 0.999 ± 0.042
72 | GTGAGAGCTG | 0.952 ± 0.015
73 | TATGACTTTG | 1.03 ± 0.071
74 | CAATCATGTC | 1.04 ± 0.05
75 | GTGAAGGAGC | 0.995 ± 0.017

Row | Sequence | switch fluorescence ratio
76 | AATGGATTGG | 0.997 ± 0.018
77 | GCAGGGATGA | 0.994 ± 0.0052
78 | CGGCGATGTT | 0.9867 ± 0.0076
79 | TTAATTAACG | 0.995 ± 0.023
80 | GAAACTAATT | 0.9966 ± 0.0042
81 | TAGCGGTGTC | 1.07 ± 0.021
82 | GGGCAATTGA | 1 ± 0.051
83 | ATATCAAAAT | 1.01 ± 0.013
84 | TGTGAAGTGG | 1.02 ± 0.034
85 | GTGTTAACTG | 0.984 ± 0.028
86 | TGCTATACTT | 1.46 ± 0.15
87 | CGTTTACGGA | 0.998 ± 0.026
88 | TTCCGCCGCT | 2.34 ± 1.8
89 | CATTTACGCT | 1.03 ± 0.014
90 | TTTGACGACA | 1.11 ± 0.1
91 | GCACATGGCA | 1.02 ± 0.015
92 | TTATTACGGG | 1.01 ± 0.038
93 | CGGCAGGTAA | 1.05 ± 0.03
94 | CTGGTGGAGC | 0.954 ± 0.021
95 | AATTATGATG | 0.9948 ± 0.0069
96 | GGCCGTTCAT | 0.972 ± 0.011
97 | TGCGTAGTGC | 1.09 ± 0.036
98 | GCTAGTAGTC | 1.01 ± 0.046
99 | GCGATCAATC | 1.71 ± 0.029
100 | CCTGGGGGTA | 1.04 ± 0.024

Row | Sequence | switch fluorescence ratio
101 | TTCCTTGGAT | 1.015 ± 0.0019
102 | AATAGAACTT | 1.02 ± 0.061
103 | GGGCACGCTG | 1.033 ± 0.0053
104 | TTCAAGATGG | 0.992 ± 0.046
105 | CCTACCCTCC | 3.05 ± 0.22
106 | CTGGTATAGG | 0.977 ± 0.028
107 | TGGGCGGGA | 1 ± 0.03
108 | TAACTCTTTT | 0.978 ± 0.044
109 | ACTTGTTCGT | 1.006 ± 0.0075
110 | GGGATAGGGC | 1.04 ± 0.054
111 | CAACGTATTT | 1.113 ± 0.002
112 | TCTGTCCCGC | 1.16 ± 0.11
113 | CGGACGAGAG | 0.998 ± 0.022
114 | TGCATTTAGT | 1.006 ± 0.0086
115 | TTATAAAGCG | 1.054 ± 0.0028
116 | GGTCTATTTT | 0.986 ± 0.023
117 | ATAATTTAGG | 0.9859 ± 0.0029
118 | TCGGTGTGCT | 1.06 ± 0.064
119 | ACGGGGGGTT | 1.05 ± 0.085
120 | AAGGGGGGCA | 0.966 ± 0.037
121 | CTAATAATAT | 1.01 ± 0.025
122 | ATATATTGGC | 1.02 ± 0.054
123 | TTGCCGGCTA | 1.038 ± 0.0057
124 | AATTAACTTT | 0.985 ± 0.023
125 | ATTTTTGGTG | 1.06 ± 0.064

Row | Sequence | switch fluorescence ratio
126 | TGGCACCTTT | 1.11 ± 0.036
127 | GTGATGGGAC | 1.02 ± 0.0077
128 | TAAGGGTTTC | 1.02 ± 0.066
129 | GATGTGCTTG | 1.01 ± 0.013
130 | GGGGACGGAC | 1.04 ± 0.035
131 | AGAAAAAAAG | 1.02 ± 0.03
132 | GGGGAGGGAA | 1.01 ± 0.027
133 | TGGACCATTT | 1.01 ± 0.0021
134 | GGGTGGGACG | 1.23 ± 0.16
135 | CGATCTTACG | 0.9935 ± 0.0069
136 | GACGGGATTT | 1.03 ± 0.03
137 | TTAGGAGAAT | 0.999 ± 0.015
138 | AAATGTCTCT | 1.01 ± 0.012
139 | TTGGGAAGAT | 0.981 ± 0.018
140 | TCTGGGTGAT | 1.03 ± 0.015
141 | ACTCCAGGAG | 1.06 ± 0.025
142 | TGTGGTACCA | 1.01 ± 0.023
143 | TTATTTATTT | 0.975 ± 0.03
144 | TTGGGTGGCG | 1.04 ± 0.12
145 | AGTGTTTTTG | 0.9936 ± 0.0011
146 | TTAGTTGTAA | 1.012 ± 0.0049
147 | CCATTCTTCG | 1.08 ± 0.028
148 | AAGGCCGGAA | 1.04 ± 0.025
149 | CATTTGGATG | 1.02 ± 0.013
150 | GGGTTTTGAA | 0.984 ± 0.021

Row | Sequence | switch fluorescence ratio
151 | CGGGTCGTGC | 1.03 ± 0.013
152 | GTTTTTTCTT | 0.971 ± 0.051
153 | AATGGATGCG | 1 ± 0.029
154 | GCATTAGGGA | 0.989 ± 0.024
155 | ATTGGTGGGG | 0.982 ± 0.033
156 | GAGTAGAGTG | 0.957 ± 0.026
157 | CTAAAGTTGG | 0.995 ± 0.02
158 | CATTAATAGT | 0.98 ± 0.031
159 | AATGATAGTT | 0.986 ± 0.02
160 | ACCGGTTGGT | 0.976 ± 0.01
161 | TTGCGTGTGG | 1.048 ± 0.0046
162 | GATATAACAT | 1.028 ± 0.0025
163 | GATCGTGAGT | 1 ± 0.015
164 | TGGTTTCATT | 1.01 ± 0.017
165 | TATTCTGGTT | 1.02 ± 0.05
166 | TTTTTCATGT | 0.997 ± 0.044
167 | TTTACATTGT | 1.01 ± 0.03
168 | GATAGTTTTT | 0.985 ± 0.03
169 | TGAATTCCAT | 0.983 ± 0.023
170 | TTCTGAATTT | 0.999 ± 0.028
171 | CCAGGAATAA | 1.11 ± 0.14
172 | GCTGAGGATG | 0.9799 ± 0.0058
173 | AGGGTGGGGT | 0.977 ± 0.043
174 | TATATGATGA | 0.996 ± 0.015
175 | CCTGGCGCCA | 1.006 ± 0.0021

Row | Sequence | switch fluorescence ratio
176 | TCGGTGCGAC | 1.04 ± 0.032
177 | CTTGTGTTCT | 0.9964 ± 0.004
178 | GAAGTGCATT | 0.98 ± 0.053
179 | TATCGGGACT | 0.9751 ± 0.006
180 | TCCGTTTTTT | 1.04 ± 0.063
181 | TTTGGGAGTT | 1.05 ± 0.19
182 | AACCAGCACC | 1.0991 ± 0.00048
183 | CAATATTACA | 1.05 ± 0.016
184 | TTTTCGTCTC | 1.02 ± 0.019
185 | TGAATCCATT | 1 ± 0.036
186 | GATTTTTGGC | 0.9945 ± 0.0087
187 | TCCATTTTCG | 0.984 ± 0.025
188 | GTTTGGAGTG | 1 ± 0.041
189 | TCCAGAACCC | 1 ± 0.011
190 | TAGGTCCCTG | 0.99 ± 0.042
191 | AGGATCGATG | 1 ± 0.05
192 | GAGTCGCCTG | 0.991 ± 0.037
193 | AAGGTGGTTT | 0.957 ± 0.048
194 | GGGGGTTTAG | 1 ± 0.028
195 | ATTATTATTG | 0.981 ± 0.041
196 | ACTAAAAGGC | 1.0107 ± 3.2e-05
197 | GACGTATCGT | 0.989 ± 0.032
198 | TATTGGGGTT | 0.996 ± 0.04
199 | ATTTACCAGG | 1.18 ± 0.26
200 | AGGGAAAAGA | 1.03 ± 0.031
